The source of these data is patent US20260139017A1, “COMPOSITIONS AND METHODS USING REELIN IN ALZHEIMER'S DISEASE” (The General Hospital Corporation, priority 2022, published 2026).

One data set has as its target T1, NRP1 (Homo sapiens, UniProt O14786).
T1 construct: purchased R&D 3870-N1-025
T1 sequence (O14786 22-644 isoform O14786-2 limits assumed): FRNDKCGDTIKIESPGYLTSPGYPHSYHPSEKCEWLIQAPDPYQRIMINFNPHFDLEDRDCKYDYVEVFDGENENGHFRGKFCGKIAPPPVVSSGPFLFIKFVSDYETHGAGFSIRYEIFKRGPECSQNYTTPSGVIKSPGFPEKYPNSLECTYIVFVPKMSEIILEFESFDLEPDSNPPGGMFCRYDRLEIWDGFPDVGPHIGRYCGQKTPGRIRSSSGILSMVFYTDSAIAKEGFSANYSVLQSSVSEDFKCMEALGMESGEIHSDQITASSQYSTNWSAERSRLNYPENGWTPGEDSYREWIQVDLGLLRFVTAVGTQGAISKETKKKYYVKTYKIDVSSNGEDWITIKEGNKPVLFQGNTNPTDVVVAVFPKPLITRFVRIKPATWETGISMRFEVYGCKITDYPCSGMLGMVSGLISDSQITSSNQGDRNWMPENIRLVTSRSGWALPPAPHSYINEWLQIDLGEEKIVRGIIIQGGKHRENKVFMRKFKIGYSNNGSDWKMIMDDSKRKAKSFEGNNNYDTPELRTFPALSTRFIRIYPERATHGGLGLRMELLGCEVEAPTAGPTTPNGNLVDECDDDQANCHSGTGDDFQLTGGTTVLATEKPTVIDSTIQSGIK
Put plainly: Bio-layer interferometry (BLI) of CTR-RELN-NRP-1 interactions. In kind it is binding. To be noted: immobilized biotinylated NRP1. On the procedure:
Bio-layer interferometry (BLI) was additionally used to assess NRP1-protein kinetics at 30° C. and 1000 rpm agitation. 1 mg/mL NRP1 (R&D 3870-N1-025) was biotinylated at a 1:2 molar ratio, desalted, and immobilized on the SA biosensor tip (Pall ForteBio) surface. This was followed by 1) 180 seconds baseline buffer diluent, 2) loading of the ligand (NRP1), 3) 180 seconds baseline buffer diluent, 4) 240 seconds association (analyte), and 5) 300 seconds disassociation in assay buffer. Assay buffer: SD Buffer (pH7.4 PBS, 0.05% tween20, 0.01% BSA).
The experimental data were fit with the 1:1 binding model and analyzed with global fitting using Octet Data Analysis software to calculate KD.
Bio-layer interferometry (BLI) was used to assess NRP1-protein kinetics at 30° C. and 1000 rpm agitation using previously published methods. 1 mg/mL NRP1 (R&D 3870-N1-025) was biotinylated at a 1:2 molar ratio, desalted, and immobilized on the SA biosensor tip (Pall ForteBio) surface. This was followed by 1) 180 seconds baseline buffer diluent, 2) loading of the ligand (NRP1), 3) 180 seconds baseline buffer diluent, 4) 240 seconds association (analyte), and 5) 300 seconds disassociation in assay buffer. Assay buffer: SD Buffer (pH7.4 PBS, 0.05% tween20, 0.01% BSA).

In another data set the test system is SH-SY5Y cells. Put plainly: Lactate dehydrogenase assay in SH-SY5Y cells treated with oligomeric Tau. The data set is classed as cell-based. Here is the method: A lactate dehydrogenase assay was performed in SH-SY5Y cells treated 24 h with pre-formed oligomeric Tau (oTau) either alone or in the presence of C-term RELN WT (184I). The lactate dehydrogenase assay was performed as follows. 100 k neuroblastoma (SH-SY5Y, ATCC) cells/well were plated in 96-well TC treated plates in growth media (DMEM/F12, Gibco, 10% heat-inactivated FBS, R&D, 200 ug normocin) and allowed to attach and grow overnight. Next day, test compounds were allowed to thaw on wet ice. Phenol-free and serum free DMEM/F12 no serum no antibiotic media was warmed and a 50 mL aliquot was sterile filtered (0.22 um) as test media. In TC cabinet, thawed test compounds were mixed via pipetting then added to final concentration for each test condition in filtered test media and mixed through pipetting. Test conditions were allowed to pre-incubate for 15 mins at RT in TC cabinet. Wells were gently aspirated and gently washed with 200 uL prewarmed Test media, then gently aspirated and 100 μL of test conditions were added and allowed to incubate in TC incubator at 5% CO2 for 21 hrs. LDH performed using Roche kit according to manufacturer's protocol.

“Also recorded” adds a separate entry of the source.

B1: pfcn-huIgG2-C-termH3447WT (protein)
chain: MYRMQLLSCIALSLALVTNSAPLERKSSVECPPCPAPPVAGPSVFLFPPKPKDTLMISRTPEVTCVVVDVSHEDPEVQFNWYVDGVEVHNAKTKPREEQFNSTFRVVSVLTVVHQDWLNGKEYKCKVSNKGLPAPIEKTISKTKGQPREPQVYTLPPSREEMTKNQVSLTCLVKGFYPSDIAVEWESNGQPENNYKTTPPMLDSDGSFFLYSKLTVDKSRWQQGNVFSCSVMHEALHNHYTQKSLSLSPGARTSTRKQNYMMNFSRQHGLRHFYNRRRRSLRRYP
In the data set with NRP1, B1 yielded a ka of 9400 M⁻¹ s⁻¹ and a kd of 0.00573 s⁻¹. For the same molecule, in the data set on SH-SY5Y cells, the “cytotoxicity of construct (LDH)” value is “did not show any cytotoxicity”. For the same molecule, in the data set on SH-SY5Y cells (oTau with construct), the “oligomeric Tau-induced cytotoxicity (LDH)” value was “reduction of oTau-derived cytotoxicity; also recorded: Reduced oligomeric Tau-induced cytotoxicity”.
